Measured values from PMC5224484 (Nucleic Acids Research, 2016).
Numbering of substitutions follows the chain as printed.

T1: seleno-methionine labeled SRP72-PBD (L31M/L65M) (human, UniProt O76094 8-166, L31M | L65M, seleno-methionine labeled)
T1 sequence (looked up): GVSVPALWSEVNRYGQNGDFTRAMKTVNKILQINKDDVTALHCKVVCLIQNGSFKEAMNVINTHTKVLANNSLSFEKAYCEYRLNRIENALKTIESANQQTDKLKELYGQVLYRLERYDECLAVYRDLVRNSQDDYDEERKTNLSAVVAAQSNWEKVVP

T2: human SRP72 protein-binding domain (SRP72-PBD, 8-166) (human, UniProt O76094 8-166)
T2 sequence (looked up): T1 sequence (looked up) with M24L, M58L

B1: untagged human SRP68 protein-binding domain (SRP68-PBD, 546-614) (domain or fragment, UniProt Q9UHB9 546-614, looked up)
chain: SQVKDNKPLVERFETFCLDPSLVTKQANLVHFPPGFQPIPCKPLFFDLALNHVAFPPLEDKLEQKTKSG
B2: His6-SRP68-PBD (human SRP68 546-614 from pETtrx1a) (domain or fragment, UniProt Q9UHB9 546-614, looked up)
chain: B1 chain

How the values were obtained:
[1] = biological target: T1, seleno-methionine labeled SRP72-PBD …; experiment: crystal structure
[2] = biological target: T2, human SRP72 protein-binding domain …; experiment: ITC

| Binder | binding result [1] | Kd [2] [nM] | dH [2] [kcal/mol] |
| --- | --- | --- | --- |
| B1 | binds | – | – |
| B2 | – | 33 ± 11 | -15.7 ± 0.5 |
